In the assay the target is T1, endogenous NXF1 in mouse neuronal N2A cells (mouse (endogenous in mouse neuronal N2A …, UniProt Q99JX7 2-618)).
T1 construct: Detected with anti-NXF1 clone 53H8 after anti-FLAG immunoprecipitation; also called TAP/NXF1; nuclear export factor 1
T1 sequence (looked up): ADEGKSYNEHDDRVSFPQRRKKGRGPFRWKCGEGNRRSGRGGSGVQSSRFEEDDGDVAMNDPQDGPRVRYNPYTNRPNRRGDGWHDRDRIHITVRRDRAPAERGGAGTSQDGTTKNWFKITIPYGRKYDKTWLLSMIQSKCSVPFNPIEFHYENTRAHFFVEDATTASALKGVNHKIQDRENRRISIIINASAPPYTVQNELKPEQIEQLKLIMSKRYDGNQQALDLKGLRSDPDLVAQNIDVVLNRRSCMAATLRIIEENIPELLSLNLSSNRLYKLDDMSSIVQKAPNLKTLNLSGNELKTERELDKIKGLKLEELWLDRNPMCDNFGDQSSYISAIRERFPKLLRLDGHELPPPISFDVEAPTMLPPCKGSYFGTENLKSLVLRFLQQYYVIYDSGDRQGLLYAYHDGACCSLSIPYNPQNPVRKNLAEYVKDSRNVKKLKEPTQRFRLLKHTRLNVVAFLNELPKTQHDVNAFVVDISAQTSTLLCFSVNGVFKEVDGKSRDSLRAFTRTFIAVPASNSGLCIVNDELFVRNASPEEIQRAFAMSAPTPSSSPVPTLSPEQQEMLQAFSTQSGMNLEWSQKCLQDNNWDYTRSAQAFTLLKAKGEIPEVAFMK
Description: anti-FLAG co-immunoprecipitation of endogenous NXF1 from transfected N2A cells (FIG. 6).

The results in this text go back to US20190194660A1 (UNIVERSITY OF SHEFFIELD, published 2019).

Description: Co-immunoprecipitation of endogenous NXF1 is assessed using anti-NXF1 antibodies;

B1: FLAG-tagged SRSF1 11-196 quadruple mutant (SRSF1-m4) (other)
chain: AGNNDCRIYVGNLPPDIRTKDIEDVFYKYGAIRDIDLKNRRGGPPFAFVEFEDPRDAEDAVYGRDGYDYDGYRLRVEFPASGAGTGRGGGGGGGGGAPRGRYGPPSAASENRVVVSGLPPSGSWQDLKDHMREAGDVCYADVYRDGTGVVEFVRKEDMTYAVRKLDNTKFRSHEGETAYIRVKVDG
notes: also called p3xFLAG/SRSF1 (11-196)-m4; dominant negative mutant SRSF1-m4; not shown: FLAG tag from the p3xFLAG vector (Sigma)
Regarding B1, the binding result is listed as “no binding”.
